From publication PMC9204313

Key:
Human fibrinogen (human) = Human fibrinogen (human) (UniProt P02671); assay: BLI; Octet K2; CEP-BSA or fibrinogen amine-coupled to AR2G biosensor; active αD I-domain 50-1000 nM in the mobile phase; 20 mM HEPES, 150 mM NaCl, 1 mM CaCl2, 1 mM MgCl2, 0.02% Tween-20, 0.02% BSA, pH 7.5; KD from a plot of response at equilibrium against concentration
[1] = target: CEP-BSA (21:1 molar ratio) (bovine (from the name BSA)) (UniProt P02769); assay: as above

Sequence of UniProt P02671 (P02671 36-866, chain 1 of 3): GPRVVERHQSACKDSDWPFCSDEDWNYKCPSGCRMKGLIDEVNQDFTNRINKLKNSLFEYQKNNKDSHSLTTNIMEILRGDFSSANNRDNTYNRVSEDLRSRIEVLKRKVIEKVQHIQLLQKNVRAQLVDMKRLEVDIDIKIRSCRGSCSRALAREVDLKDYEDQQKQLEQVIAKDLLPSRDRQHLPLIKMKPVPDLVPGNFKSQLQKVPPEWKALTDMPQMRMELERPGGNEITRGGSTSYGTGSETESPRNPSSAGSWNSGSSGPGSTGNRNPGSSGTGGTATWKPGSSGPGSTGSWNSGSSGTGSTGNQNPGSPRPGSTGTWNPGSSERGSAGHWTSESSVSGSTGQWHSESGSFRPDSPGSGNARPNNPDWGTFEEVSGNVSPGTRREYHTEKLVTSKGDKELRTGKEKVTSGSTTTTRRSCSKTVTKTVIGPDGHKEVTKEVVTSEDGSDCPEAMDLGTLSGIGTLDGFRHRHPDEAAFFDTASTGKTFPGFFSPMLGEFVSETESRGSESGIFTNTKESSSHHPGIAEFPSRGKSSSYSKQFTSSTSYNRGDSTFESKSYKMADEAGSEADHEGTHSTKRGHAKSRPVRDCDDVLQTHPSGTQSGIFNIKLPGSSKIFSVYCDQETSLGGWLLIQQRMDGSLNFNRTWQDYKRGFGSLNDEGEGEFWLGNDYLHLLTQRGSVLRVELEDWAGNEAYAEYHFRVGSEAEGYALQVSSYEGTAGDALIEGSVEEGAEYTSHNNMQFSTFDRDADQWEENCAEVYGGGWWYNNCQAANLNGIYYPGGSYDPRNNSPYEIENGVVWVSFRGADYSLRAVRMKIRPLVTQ
Sequence of UniProt P02671 (P02675 45-491, chain 2 of 3, further chain): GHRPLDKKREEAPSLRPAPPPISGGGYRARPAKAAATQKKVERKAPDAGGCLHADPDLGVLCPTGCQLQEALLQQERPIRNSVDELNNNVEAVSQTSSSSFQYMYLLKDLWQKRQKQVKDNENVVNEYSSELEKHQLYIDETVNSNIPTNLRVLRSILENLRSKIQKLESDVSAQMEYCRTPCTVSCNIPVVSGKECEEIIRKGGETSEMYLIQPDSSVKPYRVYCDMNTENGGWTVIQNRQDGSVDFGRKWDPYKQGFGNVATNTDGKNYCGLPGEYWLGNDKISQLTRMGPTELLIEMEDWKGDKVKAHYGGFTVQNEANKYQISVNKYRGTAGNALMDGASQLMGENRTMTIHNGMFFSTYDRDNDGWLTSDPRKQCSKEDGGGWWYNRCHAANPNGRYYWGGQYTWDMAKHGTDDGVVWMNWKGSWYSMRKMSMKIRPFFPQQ
Sequence of UniProt P02671 (P02679 27-453, chain 3 of 3, further chain): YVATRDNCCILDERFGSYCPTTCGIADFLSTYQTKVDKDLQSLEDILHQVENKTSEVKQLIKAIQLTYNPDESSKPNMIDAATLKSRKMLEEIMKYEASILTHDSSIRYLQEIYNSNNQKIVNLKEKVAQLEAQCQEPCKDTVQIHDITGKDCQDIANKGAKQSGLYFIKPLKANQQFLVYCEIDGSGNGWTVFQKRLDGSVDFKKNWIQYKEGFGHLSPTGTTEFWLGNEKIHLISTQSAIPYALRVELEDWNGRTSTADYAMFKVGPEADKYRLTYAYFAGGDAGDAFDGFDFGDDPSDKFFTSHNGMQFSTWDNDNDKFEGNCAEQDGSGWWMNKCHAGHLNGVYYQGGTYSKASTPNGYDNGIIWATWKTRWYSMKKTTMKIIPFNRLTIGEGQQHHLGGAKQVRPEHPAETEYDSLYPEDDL

Substance: recombinant αD I-domain in an active conformation (domain or fragment)
- Kd (Human fibrinogen (human)): 220 nM
- Kd [1]: 100 nM
